Data: US20140242093A1, “METHODS AND COMPOSITIONS FOR MODULATING THE INNATE IMMUNE RESPONSE AND/OR MYOGENESIS IN A MAMMALIAN SUBJECT” (FRED HUTCHINSON CANCER RESEARCH CENTER, priority 2011, published 2014)

Tested on: control human primary myoblasts
Experiment: Expression microarray of primary myoblasts transduced with lentivirus carrying DUX4-fl, DUX4-s or GFP
Description: Primary human myoblasts were collected and cultured as previously described (Snider et al., 2010). Primary myoblasts were maintained at or below 70% confluency for proliferation. For differentiation, cells were allowed to reach 95-100% confluency in growth medium. Once confluency was reached, the cells were changed to differentiation medium (F10 media supplemented with 1% horse serum, 10 μg/mL insulin, and 10 μg/mL transferrin, penicillin/streptomycin) and maintained for 4 days. Human RD cells were grown in DMEM in 10% bovine calf serum (Hyclone) and penicillin/streptomycin. The primary myoblasts were transduced with lentivirus carrying DUX-fl, DUX4- or GFP (MOI=15).
Expression microarrays were performed on the transduced cells at 24 hours after transduction as follows. […] Samples were analyzed by Illumina Human Whole Genome microarrays. Probe intensities were corrected, normalized, and summarized by the Lumi package of Bioconductor (Du et al., 2008). Differentially expressed genes were identified by the LIMMA package of Bioconductor (Wettenhall and Smyth, 2004). Gene set enrichment analysis (GSEA) was performed using the Bioconductor GOstats package (Falcon and Gentleman, 2007).

B1: DUX4-s: short splice form of DUX4 (SEQ ID NO:112), keeps the double-homeobox domains, lacks the C-terminal activation domain (protein, listed as Homo sapiens)
chain: MALPTPSDSTLPAEARGRGRRRRLVWTPSQSEALRACFERNPYPGIATRERLAQAIGIPEPRVQIWFQNERSRQLRQHRRESRPWPGRRGPPEGRRKRTAVTGSQTALLLRAFEKDRFPGIAAREELARETGLPESRIQIWFQNRRARHPGQGGRAPAQV
IFITM3 expression fc (Refseq NM_021034.2, cultured human skeletal muscle): −0.1274
NEFH expression fc (Refseq NM_021076.2): 0.09952
fc of SLC8A1 (expression array) (Refseq NM_021097.2): 1.046
PSAT1 fc (Refseq NM_021154.3): 0.7365
RAB40C fc (Refseq NM_021168.2): −0.07138
fc of SLC30A1 (expression array) (Refseq NM_021194.2): 1.236
CTDSP1 fc (Refseq NM_021198.1): 0.04155
ARHGAP22 fc (Refseq NM_021226.2): 0.07773
fc of NTN4 (expression array) (Refseq NM_021229.3): 0.03724
PELI2 expression fc (Refseq NM_021255.2): −0.3732
PLEKHA2 fc (Refseq NM_021623.1): 0.062
AVPI1 expression fc (Refseq NM_021732.1): 0.1884
fc of FAM3A (expression array) (Refseq NM_021806.1): −0.1833
APOBEC3G expression fc (Refseq NM_021822.1, cultured human skeletal muscle): 1.408
fc of C14orf93 (expression array) (Refseq NM_021944.1): −0.1073
HSPA2 expression fc (Refseq NM_021979.3): −0.2546
CXCL16 fc (Refseq NM_022059.1): 1.184
NOD2 fc (Refseq NM_022162.1): 0.4347
IFIH1 expression fc (Refseq NM_022168.2, cultured human skeletal muscle): 1.659
HS1BP3 fc (Refseq NM_022460.3): 0.05143
C14orf173 fc (Refseq NM_022489.2): −0.2714
FEZ1 fc (Refseq NM_022549.2): 0.19
HIPK2 fc (Refseq NM_022740.2): 0.3559
fc of MOSC1 (expression array) (Refseq NM_022746.2): −0.1084
PARP12 expression fc (Refseq NM_022750.2, cultured human skeletal muscle): 0.7767
CRTC3 fc (Refseq NM_022769.3): −0.1184
FAM129B fc (Refseq NM_022833.2): 0.4382
IFI6 expression fc (Refseq NM_022872.2, cultured human skeletal muscle): −0.03611
FGFR3 expression fc (Refseq NM_022965.1): 0.04147
PRAMEF1 expression fc (Refseq NM_023013.1): 0.0691
PRAMEF2 expression fc (Refseq NM_023014.1): −0.04937
C8orf33 expression fc (Refseq NM_023080.1): −0.06075
GRAMD3 fc (Refseq NM_023927.1): 0.3772
NEUROG2 expression fc (Refseq NM_024019.2): −0.004473
NUP37 fc (Refseq NM_024057.2): −0.1339
PRRG4 expression fc (Refseq NM_024081.4): 0.2096
TRIM48 expression fc (Refseq NM_024114.2): −0.07954
DHX58 expression fc (Refseq NM_024119.2, cultured human skeletal muscle): 0.6965
PRKAG2 fc (Refseq NM_024429.1): 0.7547
fc of FAM65A (expression array) (Refseq NM_024519.2): −0.1263
fc of ZC3HAV1 (expression array) (Refseq NM_024625.3): 1.471
YRDC expression fc (Refseq NM_024640.3): 0.000579
NPEPL1 fc (Refseq NM_024663.3): −0.2631
SNIP1 expression fc (Refseq NM_024700.2): −0.174
fc of FAM57A (expression array) (Refseq NM_024792.1): −0.003135
C13orf34 expression fc (Refseq NM_024808.2): −0.002127
fc of NUDT18 (expression array) (Refseq NM_024815.3): 0.1692
fc of ZNF672 (expression array) (Refseq NM_024836.1): −0.1481
C14orf159 expression fc (Refseq NM_024952.5, cultured human skeletal muscle): 0.5194
NRSN2 fc (Refseq NM_024958.1): 0.06807
SLC24A6 fc (Refseq NM_024959.2): 0.0001018
CSRNP3 expression fc (Refseq NM_024969.2): −0.07941
fc of ULBP1 (expression array) (Refseq NM_025218.2): 0.6193
C6orf148 expression fc (Refseq NM_030568.2): −0.1046
KLHL15 expression fc (Refseq NM_030624.1): 0.7742
fc of ZBP1 (expression array) (Refseq NM_030776.1): 1.187
SLC2A10 fc (Refseq NM_030777.3): −0.3197
SYNC1 fc (Refseq NM_030786.1): −0.2508
PDRG1 expression fc (Refseq NM_030815.2): 0.0622
UNC93B1 expression fc (Refseq NM_030930.2, cultured human skeletal muscle): 0.9411
PPP1R14C expression fc (Refseq NM_030949.2): −0.01369
TRIM56 fc (Refseq NM_030961.1): 0.3086
fc of RNF146 (expression array) (Refseq NM_030963.2): 0.1463
ADPGK expression fc (Refseq NM_031284.3): 0.09196
C11orf68 fc (Refseq NM_031450.2): 0.3616
FAM107B expression fc (Refseq NM_031453.2): −0.1841
PARP9 expression fc (Refseq NM_031458.1, cultured human skeletal muscle): 0.4426
IFI27L2 fc (Refseq NM_032036.2): −0.02949
SFRS2B expression fc (Refseq NM_032102.2): −0.3335
fc of ATRIP (expression array) (Refseq NM_032166.2): 0.002138
CEP78 expression fc (Refseq NM_032171.1): −0.1396
SON expression fc (Refseq NM_032195.1): −0.2838
LARP1B expression fc (Refseq NM_032239.2): −0.2602
MED10 expression fc (Refseq NM_032286.2): 0.5994
C1orf57 fc (Refseq NM_032324.1): 0.3544
ELOF1 expression fc (Refseq NM_032377.3): −0.3008
fc of C15orf48 (expression array) (Refseq NM_032413.2): 1.653
PKIB expression fc (Refseq NM_032471.4): −0.1719
KBTBD8 expression fc (Refseq NM_032505.1): 0.01077
TMEM185A expression fc (Refseq NM_032508.1): 0.2327
PARD6G fc (Refseq NM_032510.3): −0.01049
fc of EBPL (expression array) (Refseq NM_032565.2): −0.0901
fc of ACCS (expression array) (Refseq NM_032592.3): −0.1557
RBBP6 expression fc (Refseq NM_032626.5): −0.1339
SPRYD5 expression fc (Refseq NM_032681.1): −0.07702
fc of SPPL2A (expression array) (Refseq NM_032802.3): 1.124
ATOH8 expression fc (Refseq NM_032827.4, cultured human skeletal muscle): −0.2886
CORO6 fc (Refseq NM_032854.2): −0.3004
fc of TIGD5 (expression array) (Refseq NM_032862.2): −0.2163
CASP6 expression fc (Refseq NM_032992.2): 0.2336
TRIM5 fc (Refseq NM_033034.1): 0.5003
EPSTI1 expression fc (Refseq NM_033255.2, cultured human skeletal muscle): 0.6618
TP53INP1 fc (Refseq NM_033285.2): −0.5734
CASP1 fc (Refseq NM_033294.2): 2.171
PRIC285 expression fc (Refseq NM_033405.2, cultured human skeletal muscle): 0.8634
ZNF622 expression fc (Refseq NM_033414.2): 0.01403
PANX2 expression fc (Refseq NM_052839.2): 0.2001
fc of C20orf72 (expression array) (Refseq NM_052865.2): −0.05254
fc of GBP5 (expression array) (Refseq NM_052942.2): 1.314
fc of ALPK2 (expression array) (Refseq NM_052947.3): −1.08
fc of ANTXR1 (expression array) (Refseq NM_053034.1): 0.3595
AP1S1 fc (Refseq NM_057089.2): −0.1404
CCNE1 expression fc (Refseq NM_057182.1): −0.1277
FBXO32 fc (Refseq NM_058229.2): 0.7666
CCNT2 expression fc (Refseq NM_058241.1): −0.3221
SLC44A1 fc (Refseq NM_080546.3): 0.7801
fc of C2orf28 (expression array) (Refseq NM_080592.2): −0.07859
DYNLL2 expression fc (Refseq NM_080677.1): 0.6521
HOM-TES-103 fc (Refseq NM_080731.1): −0.3166
ZNF280A expression fc (Refseq NM_080740.3): 0.05889
C20orf127 expression fc (Refseq NM_080757.1, cultured human skeletal muscle): 0.4401
fc of PTPRA (expression array) (Refseq NM_080841.2): 0.04113
ASB5 fc (Refseq NM_080874.2): −0.4567
APBB3 expression fc (Refseq NM_133172.2, cultured human skeletal muscle): 0.03992
fc of DIS3L (expression array) (Refseq NM_133375.2): −0.2728
C6orf117 expression fc (Refseq NM_138409.1): −0.06998
fc of SDSL (expression array) (Refseq NM_138432.2): −0.09243
TRIM43 expression fc (Refseq NM_138800.1): 0.02385
CMBL expression fc (Refseq NM_138809.3, cultured human skeletal muscle): 0.06858
fc of FGD4 (expression array) (Refseq NM_139241.1): 1.214
ANGPTL4 fc (Refseq NM_139314.1): 1.267
MBD3L2 expression fc (Refseq NM_144614.2): 0.02684
JSRP1 fc (Refseq NM_144616.2): −0.4661
fc of PPM1M (expression array) (Refseq NM_144641.1): −0.2381
fc of C1orf58 (expression array) (Refseq NM_144695.2): 1.054
FXYD5 fc (Refseq NM_144779.1): 0.09461
Cllorf82 expression fc (Refseq NM_145018.2): −0.2738
CDC42EP5 fc (Refseq NM_145057.2): 0.1387
SPATA18 expression fc (Refseq NM_145263.2, cultured human skeletal muscle): −0.214
MOBKL2C fc (Refseq NM_145279.4): 0.1274
ZNF296 expression fc (Refseq NM_145288.1): 0.1758
fc of MGST1 (expression array) (Refseq NM_145792.1): 0.2271
OSBPL7 fc (Refseq NM_145798.2): −0.3669
TP53I3 expression fc (Refseq NM_147184.1, cultured human skeletal muscle): 0.192
fc of GJD3 (expression array) (Refseq NM_152219.3): 0.8646
ACPL2 fc (Refseq NM_152282.3): 0.1468
fc of C1orf131 (expression array) (Refseq NM_152379.2): −0.08789
fc of PPM1K (expression array) (Refseq NM_152542.2): 1.44
C12orf50 expression fc (Refseq NM_152589.1): −0.02137
